Usually EC50 stands for the concentration at which the effect is half-maximal. A high value points to weaker potency.

Experimental findings from patent US20250043022A1 (JIANGSU HENGRUI PHARMACEUTICALS, published 2025) are described below.

Test [1] concerns the target T1, human PSMA on cells (Cho-hPSMA, CHO-K1 cells overexpressing full-length human PSMA) (human, UniProt Q04609 1-750).
T1 construct: whole, on cells; also called cell surface PSMA; PSMA-expressing Lncap cells
Kind of test: cell ELISA (OD450), Cho-hPSMA cells. The method in brief: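 Serially diluted antibodies bound to CHO-K1 cells overexpressing full-length human PSMA for 1 h at 4° C. Detection with HRP anti-human IgG (H+L, 1:8000) for 1 h at 4° C, TMB development stopped with 0.1 M sulfuric acid, OD450 read.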
(In general: ELISA stands for enzyme-linked immunosorbent assay.)

The target of test [2] is T2, human PSMA antigen (R&D SYSTEM, 4234-ZN-010) (human, UniProt Q04609 44-750).
T2 construct: bought antigen
Kind of test: ELISA, plate-bound PSMA antigen. The method, then: To test the ability of the PSMA-targeting humanized antibodies of the present disclosure to bind to PSMA antigen, the ELISA method was used in this test example to measure the binding of the PSMA-targeting humanized antibodies to human PSMA antigen (purchased from R&D SYSTEM, 4234-ZN-010). The specific steps are as follows: A 96-well plate was coated with PSMA antigen at 1 μg/well and placed at 4° C. overnight. After the supernatant was discarded, the plate was blocked with 5% skim milk for 2 h. Different concentrations of humanized antibodies were prepared using 1% BSA. The initial concentration was 10 μg/mL and was serially diluted 4-fold to obtain 12 concentrations. After the blocked 96-well plate was washed twice, the […] was added, and the plate was incubated at 4° C. for 1 h. After four washes, the plate was incubated with Strepidation-HRP secondary antibody (1:10,000) at 4° C. for 1 h. After color development with TMB, the reaction was stopped with 0.1 M sulfuric acid.

Another test deals with hCTLA4 (human, UniProt P16410 36-161). Kind of test: ELISA.
In another test the target is hPDL1 (human, UniProt Q9NZQ7 19-238). Briefly: ELISA.
hPDL1, sequence (Q9NZQ7 19-238 limits assumed): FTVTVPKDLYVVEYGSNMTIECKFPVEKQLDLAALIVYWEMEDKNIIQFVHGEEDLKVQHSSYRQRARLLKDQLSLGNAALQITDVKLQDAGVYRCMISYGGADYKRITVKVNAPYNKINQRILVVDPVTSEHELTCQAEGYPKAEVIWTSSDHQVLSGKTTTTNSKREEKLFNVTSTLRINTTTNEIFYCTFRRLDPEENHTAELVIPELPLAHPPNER

hCTLA4, sequence (P16410 36-161 limits assumed): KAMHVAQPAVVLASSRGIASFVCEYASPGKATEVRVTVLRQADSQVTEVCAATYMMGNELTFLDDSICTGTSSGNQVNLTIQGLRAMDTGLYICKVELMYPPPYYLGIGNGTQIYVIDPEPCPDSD
T1 sequence (Q04609 whole entry): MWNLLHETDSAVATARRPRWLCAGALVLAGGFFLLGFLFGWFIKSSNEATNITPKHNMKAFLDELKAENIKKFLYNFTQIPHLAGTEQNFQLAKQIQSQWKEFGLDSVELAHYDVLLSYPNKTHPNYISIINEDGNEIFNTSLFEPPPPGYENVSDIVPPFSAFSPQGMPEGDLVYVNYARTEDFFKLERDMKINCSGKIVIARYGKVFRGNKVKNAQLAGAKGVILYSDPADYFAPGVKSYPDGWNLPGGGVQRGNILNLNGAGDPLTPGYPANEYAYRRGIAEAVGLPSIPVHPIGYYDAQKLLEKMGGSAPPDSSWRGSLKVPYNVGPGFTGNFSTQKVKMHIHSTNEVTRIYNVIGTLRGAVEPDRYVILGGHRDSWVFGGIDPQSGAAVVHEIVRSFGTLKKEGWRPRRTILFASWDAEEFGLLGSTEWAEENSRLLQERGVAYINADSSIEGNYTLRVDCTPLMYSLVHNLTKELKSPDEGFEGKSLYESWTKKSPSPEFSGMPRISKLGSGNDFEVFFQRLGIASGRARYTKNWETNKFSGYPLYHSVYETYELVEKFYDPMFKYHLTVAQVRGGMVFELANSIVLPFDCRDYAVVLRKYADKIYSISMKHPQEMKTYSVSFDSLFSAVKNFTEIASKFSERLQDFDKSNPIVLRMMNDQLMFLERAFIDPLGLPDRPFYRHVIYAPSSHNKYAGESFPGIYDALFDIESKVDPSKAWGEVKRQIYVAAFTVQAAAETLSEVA
T2 sequence (Q04609 44-750 limits assumed): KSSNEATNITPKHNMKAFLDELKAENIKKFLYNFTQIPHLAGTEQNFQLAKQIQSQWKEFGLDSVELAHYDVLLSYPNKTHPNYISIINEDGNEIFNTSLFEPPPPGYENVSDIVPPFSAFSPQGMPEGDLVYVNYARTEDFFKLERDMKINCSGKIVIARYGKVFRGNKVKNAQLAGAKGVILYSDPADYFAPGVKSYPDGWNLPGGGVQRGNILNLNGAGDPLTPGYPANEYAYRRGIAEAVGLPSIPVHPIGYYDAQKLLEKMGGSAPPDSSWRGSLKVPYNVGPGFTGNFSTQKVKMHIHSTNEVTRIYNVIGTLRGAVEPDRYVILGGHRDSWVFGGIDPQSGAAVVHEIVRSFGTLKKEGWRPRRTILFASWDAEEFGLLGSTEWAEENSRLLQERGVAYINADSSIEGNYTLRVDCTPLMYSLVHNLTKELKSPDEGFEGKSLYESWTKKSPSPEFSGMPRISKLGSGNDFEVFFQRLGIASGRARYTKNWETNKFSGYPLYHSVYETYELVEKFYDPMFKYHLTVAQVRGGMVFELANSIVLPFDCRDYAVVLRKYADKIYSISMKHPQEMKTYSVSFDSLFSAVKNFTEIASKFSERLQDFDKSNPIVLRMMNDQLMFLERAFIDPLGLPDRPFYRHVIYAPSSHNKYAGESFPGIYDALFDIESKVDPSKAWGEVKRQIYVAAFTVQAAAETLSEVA

B1: hu46H2L2 (antibody, human IgG1, kappa, V domains shown)
VH: EVQLVESGGGLVKPGGSLRLSCAASGFTFSNYGMSWVRQAPGKGLEWVSTIGSGGGYTYYSDSVKGRFTISRDNAKNSLYLQMNSLRAEDTAVYYCVRHPQIGYWGQGTLVTVSS
VL: DIQMTQSPSSLSASVGDRVTITCKASQSVGTAVAWYQQKPGKAPKLLIYSASSRYTGVPSRFSGSGSGTDFTLTISSLQPEDFADYFCHQYSSYPLTFGGGTKVEIKR
In test [1], B1 registered an EC50 of 0.0202 µg/mL. In addition, in test [2], the EC50 is 0.0365 µg/mL and the “Top (maximum absorbance)” value was determined as 1.67 absorbance.

B2: hu71H3L2 (antibody, human IgG1, kappa)
heavy: not shown
light: DVVVTQTPLSLPVTPGEPASISCRSSQSLVHSYGNTYLHWYLQKPGQSPQLLIYKVSNRFSGVPDRFSGSGSGTDFTLKISRVEAEDVGVYYCSQTTHVPWTFGGGTKVEIKRTVAAPSVFIFPPSDEQLKSGTASVVCLLNNFYPREAKVQWKVDNALQSGNSQESVTEQDSKDSTYSLSSTLTLSKADYEKHKVYACEVTHQGLSSPVTKSFNRGEC
notes: also called hu71L2H3
Regarding B2, the EC50 in test [1] was found to be 0.112 µg/mL. Also, in test [2], the midpoint of the response, the EC50, lay at 0.0589 µg/mL and the “Top (maximum absorbance)” value was found to be 0.952 absorbance.

B3: hu41H2L2 (antibody, human IgG1, kappa, V domains shown)
VH: EVQLVQSGAEVKKPGASVKVSCKASGYTFTSYGISWVRQAPGQGLEWMGEIFPRRGNTYYNEKFRGRVTLTADKSTSTAYMELRSLRSDDTAVYYCARVFDGYYNYAMDYWGQGTTVTVSS
VL: DIQMTQSPSSLSASVGDRVTITCRASQDIGSSLNWLQQKPGKAIKRLIYATSSLDSGVPSRFSGSRSGTDYTLTISSLQPEDFATYYCLQYASSPYTFGGGTKVEIKR
With B3, the EC50 in test [1] stood at 1.1 µg/mL; in test [2], 0.61 µg/mL. Also, the “Top (maximum absorbance)” value in test [2] is 0.421 absorbance.

B4: hu31H1L1 (antibody, human IgG1, kappa, V domains shown)
VH: EVQLVESGGGLVQPGGSLRLSCAASGFTFSDYYMAWVRQAPGKGLEWVASINYDGSSTYYLDSLKSRFTISRDNAKNSLYLQMNSLRAEDTAVYYCAGSDGYWAWFAYWGQGTLVTVSS
VL: DIQMTQSPSSLSASVGDRVTITCRASGNIHNYLAWYQQKPGKAPKLLIYNAETLADGVPSRFSGSGSGTDFTLTISSLQPEDFATYYCQHFWSTPPTFGGGTKVEIKR
Take B4: the half-maximal effective concentration (EC50) in test [1] stood at 0.142 µg/mL. In test [2], the EC50 stood at 0.0864 µg/mL and the “Top (maximum absorbance)” value is 1.76 absorbance.

B5: hu50H1L2 (antibody, human IgG1, kappa)
heavy: not shown
light: DVFMTQSPLSLPVTPGEPASISCRSSQSILHSNGNTYLEWYLQKPGQSPQLLIYRVSNRFSGVPDRFSGSGSGTDFTLKISRVEAEDVGVYYCFQGLHVPPTFGQGTKLEIKRTVAAPSVFIFPPSDEQLKSGTASVVCLLNNFYPREAKVQWKVDNALQSGNSQESVTEQDSKDSTYSLSSTLTLSKADYEKHKVYACEVTHQGLSSPVTKSFNRGEC
notes: also called hu50L2H1
In the case of B5, in test [1], the EC50 amounted to 0.0603 µg/mL. Besides, in test [2], the EC50 was 0.0421 µg/mL and the “Top (maximum absorbance)” value turned out to be 1.3 absorbance.

B6: hu43H3L2 (antibody, human IgG1, kappa, V domains shown)
VH: EVQFVESGGGLVQPGGSLRLSCAASGFTFSNYWMNWLRQAPGKGLEWVAQVRLKSDNYATHYAESVKGRFTISREDAKNSAYLQMNSLRAEDTAVYYCSENYYGPAGPFDFWGQGTTVTVSS
VL: DIQMTQSPSSLSASVGDRVTITCKASQNVHTSVAWYQQKPGKSPKLLIYSASNRYSGVPSRFSGSGSGTDFTLTISSLQPEDVATYYCQQYSSYPLTFGQGTKLEIKR
For the molecule B6, the EC50 in test [1] was found to be 4.03 µg/mL. Besides, in test [2], the EC50 was 1.06 µg/mL and the “Top (maximum absorbance)” value was 0.245 absorbance.

B7: PL-12 (bispecific antibody)
chain 1: not shown
chain 2: DIVLTQSPASLAVSPGQRATITCRASESVSIHGTHLMHWYQQKPGQPPKLLIYAASKLESGVPARFSGSGSGTDFTLTINPVEAEDTANYYCQQSFEDPLTFGQGTKLEIKRTVASGIPPKIECLPIDISIDEGKCLTVASAFTGEPTPEVTWSTGGRKIHSQEQGRFHIENTDDSTTLTIKDVQKQDGGLYTLTLRNEFGSDSATVNIHIRSI
chain 3: not shown
chain 4: not shown
As for B7, the EC50 came out at 8 nM with hCTLA4 and 0.5 nM with hPDL1.

B8: PL-18 (bispecific antibody)
chain 1: not shown
chain 2: DIVLTQSPASLAVSPGQRATITCRASESVSIHGTHLMHWYQQKPGQPPKLLIYAASKLESGVPARFSGSGSGTDFTLTINPVEAEDTANYYCQQSFEDPLTFGQGTKLEIKRTVASGIPPKIECLPIDISIDEGKCLTVASAFTGEPTPEVTWSTGGRKIHSQEQGRFHIENTDDSTTLTIKDVQKQDGGLYTLTLRNEFGSDSATVNIHIRSI
chain 3: not shown
chain 4: not shown
B8: the EC50 in the test with hCTLA4 is 6.7 nM; in the test with hPDL1, 1.6 nM.

B9: PL-4 (bispecific antibody)
chain 1: not shown
chain 2: DIVLTQSPASLAVSPGQRATITCRASESVSIHGTHLMHWYQQKPGQPPKLLIYAASKLESGVPARFSGSGSGTDFTLTINPVEAEDTANYYCQQSFEDPLTFGQGTKLEIKGGGGSGIPPKIECLPIDISIDEGKVLTVASCFTGEPTPEVTWSTGGRKIHSQEQGRFHIENTDDSTTLTIKDVQKQDGGLYTLTLRNEFGSDSATVNIHIRSI
chain 3: not shown
chain 4: not shown
Turning to B9, the EC50 is 6.5 nM with hCTLA4 and 0.7 nM in the test with hPDL1.

B10: PL-14 (bispecific antibody)
chain 1: not shown
chain 2: DIVLTQSPASLAVSPGQRATITCRASESVSIHGTHLMHWYQQKPGQPPKLLIYAASKLESGVPARFSGSGSGTDFTLTINPVEAEDTANYYCQQSFEDPLTFGQGTKLEIKRTVASGIPPKIECLPIDISIDEGKVLTVASAFTGEPTPEVTWSTGGRKIHSQEQGRFHIENTDDSTTLTIKDVQKQDGGLYTLTLRNEFGSDSATVNIHIRSI
chain 3: not shown
chain 4: not shown
As to B10, the EC50 with hCTLA4 amounted to 6 nM; with hPDL1, 1.3 nM.

B11: PL-15 (bispecific antibody)
chain 1: not shown
chain 2: DIVLTQSPASLAVSPGQRATITCRASESVSIHGTHLMHWYQQKPGQPPKLLIYAASKLESGVPARFSGSGSGTDFTLTINPVEAEDTANYYCQQSFEDPLTFGQGTKLEIKRTVASGIPPKIECLPIDISIDEGKCLTVASAFTGEPTPEVTWSTGGRKIHSQEQGRFHIENTDDSTTLTIKDVQKQDGGLYTLTLRNEFGSDSATVNIHIRSI
chain 3: not shown
chain 4: not shown
As for B11, the EC50 came out at 3.2 nM with hCTLA4 and 1.4 nM in the test with hPDL1.

B12: PL-3 (bispecific antibody)
chain 1: not shown
chain 2: DIVLTQSPASLAVSPGQRATITCRASESVSIHGTHLMHWYQQKPGQPPKLLIYAASKLESGVPARFSGSGSGTDFTLTINPVEAEDTANYYCQQSFEDPLTFGQGTKLEIKGGGGSGIPPKIECLPIDISIDEGKCLTVASAFTGEPTPEVTWSTGGRKIHSQEQGRFHIENTDDSTTLTIKDVQKQDGGLYTLTLRNEFGSDSATVNIHIRSI
chain 3: not shown
chain 4: not shown
As for B12, the EC50 with hCTLA4 was 7.9 nM; with hPDL1, 0.6 nM.

B13: PL-19 (bispecific antibody)
chain 1: not shown
chain 2: DIVLTQSPASLAVSPGQRATITCRASESVSIHGTHLMHWYQQKPGQPPKLLIYAASKLESGVPARFSGSGSGTDFTLTINPVEAEDTANYYCQQSFEDPLTFGQGTKLEIKRTVASGIPPKIECLPIDISIDEGKVLTVASCFTGEPTPEVTWSTGGRKIHSQEQGRFHIENTDDSTTLTIKDVQKQDGGLYTLTLRNEFGSDSATVNIHIRSI
chain 3: not shown
chain 4: not shown
As for B13, the EC50 with hCTLA4 was found to be 6.5 nM; with hPDL1, 1.6 nM.

B14: PL-17 (bispecific antibody)
chain 1: not shown
chain 2: DIVLTQSPASLAVSPGQRATITCRASESVSIHGTHLMHWYQQKPGQPPKLLIYAASKLESGVPARFSGSGSGTDFTLTINPVEAEDTANYYCQQSFEDPLTFGQGTKLEIKRTVASGIPPKIECLPIDISIDEGKVLTVASAFTGEPTPEVTWSTGGRKIHSQEQGRFHIENTDDSTTLTIKDVQKQDGGLYTLTLRNEFGSDSATVNIHIRSI
chain 3: not shown
chain 4: not shown
For the molecule B14, the EC50 with hCTLA4 was 6.2 nM; in the test with hPDL1, 1.4 nM.

B15: PL-2 (bispecific antibody)
chain 1: not shown
chain 2: DIVLTQSPASLAVSPGQRATITCRASESVSIHGTHLMHWYQQKPGQPPKLLIYAASKLESGVPARFSGSGSGTDFTLTINPVEAEDTANYYCQQSFEDPLTFGQGTKLEIKGGGGSGIPPKIECLPIDISIDEGKVLTVASAFTGEPTPEVTWSTGGRKIHSQEQGRFHIENTDDSTTLTIKDVQKQDGGLYTLTLRNEFGSDSATVNIHIRSI
chain 3: not shown
chain 4: not shown
Turning to B15, the EC50 in the test with hCTLA4 came out at 8 nM; in the test with hPDL1, 0.5 nM.

B16: PL-1 (bispecific antibody)
chain 1: not shown
chain 2: DIVLTQSPASLAVSPGQRATITCRASESVSIHGTHLMHWYQQKPGQPPKLLIYAASKLESGVPARFSGSGSGTDFTLTINPVEAEDTANYYCQQSFEDPLTFGQGTKLEIKGGGGSGIPPKIECLPIDISIDEGKVLTVASAFTGEPTPEVTWSTGGRKIHSQEQGRFHIENTDDLTTLIIKDVQKQDGGLYTLTLRNEFGSDSATVNIHIRSI
chain 3: not shown
chain 4: not shown
On to B16, for which the values for the EC50 with hCTLA4 and with hPDL1 were 16.5 nM and 1.6 nM, respectively.

B17: PL-13 (bispecific antibody)
chain 1: not shown
chain 2: DIVLTQSPASLAVSPGQRATITCRASESVSIHGTHLMHWYQQKPGQPPKLLIYAASKLESGVPARFSGSGSGTDFTLTINPVEAEDTANYYCQQSFEDPLTFGQGTKLEIKRTVASGIPPKIECLPIDISIDEGKVLTVASCFTGEPTPEVTWSTGGRKIHSQEQGRFHIENTDDSTTLTIKDVQKQDGGLYTLTLRNEFGSDSATVNIHIRSI
chain 3: not shown
chain 4: not shown
Take B17: the EC50 in the test with hCTLA4 was found to be 4.4 nM; with hPDL1 it was 0.5 nM.
